Experimental data: FireProtDB (doi:10.1093/protein/9.5.425)

Details: Escherichia coli (strain K12); pH 9; 50 °C; Thermal; DSC; Sodium tetraborate 1 mM; reversible: yes; whole UniProt chain shown

B1: Tryptophan synthase alpha chain wild type, P0A877 (protein)
chain: MERYESLFAQLKERKEGAFVPFVTLGDPGIEQSLKIIDTLIEAGADALELGIPFSDPLADGPTIQNATLRAFAAGVTPAQCFEMLALIRQKHPTIPIGLLMYANLVFNKGIDEFYAQCEKVGVDSVLVADVPVEESAPFRQAALRHNVAPIFICPPNADDDLLRQIASYGRGYTYLLSRAGVTGAENRAALPLNHLVAKLKEYNAAPPLQGFGISAPDQVKAAIDAGAAGAISGSAIVKIIEQHINEPEKMLAALKVFVQPMKAATRS
In the case of B1, the “heat capacity change of unfolding” value is reported as 4.81 kcal/mol/K and the unfolding free energy is reported as 1.17 kcal/mol.
